These results are taken from publication PMC8134462, “Cross-reactive serum and memory B-cell responses to spike protein in SARS-CoV-2 and endemic coronavirus infection” (Nature Communications, 2021).

Sequences and labels used below:
B1: mAb CC9.2 (IgG) (antibody, V domains shown)
VH: EVQLVESGGGLVQPGRSLRLSCVAPGFTLGGYGMHWVRQAPGKGLEWVGLISYDGSVQKYGSSVKGRFTISKDNSKNTLYLEMNSLRADDTAVYFCVKGASLGDNWGQGTLVTVSS
VL: EIVMTQSPLSLPVTLGQPASISCRSSQSLVYSDGDTYMSWFHQRPGQSPRRLIYKVSNRDFGVPDRFSGSGSGTDFTLKISRVEAEDVGVYYCMQGTHWPYTFGPGTKVEIK
B2: mAb CC9.1 (antibody, V domains shown)
VH: EVQLVESGGGLVQPGRSLRLSCVAPGFTLGGYGMHWVRQAPGKGLEWVGLISYDGSVQKYGSSVKGRFTISKDNSKNTLYLEMNSLRADDTAVYFCVKGASLGDNWGQGTLVTVSS
VL: EIVMTQSPLSLPVTLGQPASISCRSSQSLVYSDGDTYMSWFHQRPGQSPRRLIYKVSNRDSGVPDRFSGSGSGTDFTLKISRVEAEDVGVYYCMQGTHWPYTFGPGTKVEIK
B3: second SARS-CoV-2/HCoV-HKU1 cross-reactive mAb from the CC40 donor (its name is not printed in the text) (antibody, V domains shown)
VH: EVQLVESGGGVVQPGRSLRLSCVASGFTFSNYGMHWVRQAPGKGLEWVAVMSYDGSVTYYGDSVRGRFTISRDNSKNTLYLQMSSLRTDDTGVYYCAKGQPLDDIWGLGTLVTVSS
VL: EIVMTQSPLSLPVSLGQSASISCRSSQSLVHTDGITYLSWFQQRPGQSPRRLLYKVSNRDSGVPDRFSGSGSGTDFTLKISRVEAEDVGVYYCLQGTYWPWTFGQGTKVEIK
notes: also called one of the two cross-reactive mAbs from the CC40 donor

The target in this assay is T1, SARS-CoV-2 soluble S ectodomain protein (residue 1-1208), prefusion-stabilized, with T4 fibritin … (SARS-CoV-2, Wuhan-Hu-1 (MN908947), UniProt P0DTC2, K986/V987 replaced by proline residues).
T1 construct: also called SARS-CoV-2 S-protein; whole S protein
Put plainly: BLI. The settings on record: both partners purified.
Turning to B1, the binding result is “binds”. For B2 the value was “binds”; for B3, “binds”.
